# Reference: patent publication US20200054723A1 (ALLAKOS, published 2020)
# “And” between values parts separate entries of the source, which are not always exact repeats. Equal entries are not always repeated.
# Molecular target: T1, recombinant human Siglec-8 extracellular domain (ECD) (human, UniProt Q9NYZ4 17-363)
# T1 construct: extracellular domain; also called Siglec-8 ECD; full Siglec-8 ECD
# Experiment: ELISA, coated Siglec-8 ECD
# Description: Binding of recombinant human Siglec-8 extracellular domain (ECD) by chimeric 2E2 and chimeric 2C4 IgG1K antibodies was measured by ELISA. […] Three-fold serial dilutions of a chimeric antibody (ch2E2 or ch2C4) or mouse antibody (m2E2 or m2C4) in 0.2% BSA/TBS (starting concentration was 5000 ng/mL) was added to each coated well. The plate was incubated for 2 hours at room temperature and the wells were subsequently washed before addition of goat-anti-human Fc peroxidase conjugate (1:10000 dilution) or anti-mouse Fc peroxidase conjugate (1:30000 dilution) diluted in 0.2% BSA/TBS solution. The plate was incubated for 45 minutes at room temperature, followed by washing and addition of 30 μL K-blue HRP substrate (SkyBio Ltd) to each well. After incubation at room temperature for 15 minutes, the reaction was stopped by adding 10 μL of Red Stop solution (SkyBio Ltd) to each well. The optical density or the experimental samples was read at 650 nm using the ELISA reader PHERAStar FS (BMG Labtech).
# The fully humanized antibody heavy and light chains were combined and compared with the chimeric antibody to determine if replacing the 4 Å and canonical framework residues and interface residues was sufficient to successfully humanize 2E2. Expi293 cells were co-transfected with combinations of different humanized light chain vectors in association with different humanized heavy chain vectors. Siglec-8 antigen was used to measure antibody binding by ELISA as described in Example 1.
# T1 sequence (Q9NYZ4 17-363): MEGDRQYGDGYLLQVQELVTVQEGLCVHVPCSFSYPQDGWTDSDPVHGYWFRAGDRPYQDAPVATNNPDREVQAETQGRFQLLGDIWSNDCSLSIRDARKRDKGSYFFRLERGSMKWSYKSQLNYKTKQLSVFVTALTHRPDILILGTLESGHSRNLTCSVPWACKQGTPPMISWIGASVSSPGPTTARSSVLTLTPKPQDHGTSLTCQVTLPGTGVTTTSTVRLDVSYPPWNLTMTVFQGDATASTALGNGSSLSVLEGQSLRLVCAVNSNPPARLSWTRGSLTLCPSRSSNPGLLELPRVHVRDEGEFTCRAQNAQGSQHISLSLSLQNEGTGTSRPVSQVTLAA
row,Binder,EC50
1,"HCKB (antibody, human IgG1, V domains shown, human IgG1/kappa) VH: EVQLVESGGGLVQPGGSLRLSCAVSGFSLTIYGAHWVRQAPGKGLEWVSVIWAGGSTNYNSALMSRFTISKDNSKNTVYLQMNSLRAEDTAVYYCARDGSSPYYYSMEYWGQGTTVTVSS VL: EIILTQSPATLSLSPGERATLSCSATSSVSYMHWFQQKPGQAPRLWIYSTSNLASGVPARFSGSGSGTDYTLTISSLEPEDFAVYYCQQRSSYPFTFGPGTKLDIK",65 pM
2,"HCKC (antibody, human IgG1, V domains shown, human IgG1/kappa) VH: EVQLVESGGGLVQPGGSLRLSCAVSGFSLTIYGAHWVRQAPGKGLEWVSVIWAGGSTNYNSALMSRFTISKDNSKNTVYLQMNSLRAEDTAVYYCARDGSSPYYYSMEYWGQGTTVTVSS VL: EIILTQSPATLSLSPGERATLSCSATSSVSYMHWFQQKPGQAPRLLIYSTSNLASGIPARFSGSGSGTDFTLTISSLEPEDFAVYYCQQRSSYPFTFGPGTKLDIK",58 pM
3,"HCKD (antibody, human IgG1, V domains shown, human IgG1/kappa) VH: EVQLVESGGGLVQPGGSLRLSCAVSGFSLTIYGAHWVRQAPGKGLEWVSVIWAGGSTNYNSALMSRFTISKDNSKNTVYLQMNSLRAEDTAVYYCARDGSSPYYYSMEYWGQGTTVTVSS VL: EIVLTQSPATLSLSPGERATLSCSATSSVSYMHWFQQKPGQAPRLWIYSTSNLASGIPARFSGSGSGTDFTLTISSLEPEDFAVYYCQQRSSYPFTFGPGTKLDIK",49 pM
4,"HCKE (antibody, human IgG1, V domains shown, human IgG1/kappa) VH: EVQLVESGGGLVQPGGSLRLSCAVSGFSLTIYGAHWVRQAPGKGLEWVSVIWAGGSTNYNSALMSRFTISKDNSKNTVYLQMNSLRAEDTAVYYCARDGSSPYYYSMEYWGQGTTVTVSS VL: EIVLTQSPATLSLSPGERATLSCSATSSVSYMHWFQQKPGQAPRLLIYSTSNLASGVPARFSGSGSGTDFTLTISSLEPEDFAVYYCQQRSSYPFTFGPGTKLDIK",59 pM
5,"HCKF (antibody, human IgG1, V domains shown, human IgG1/kappa) VH: EVQLVESGGGLVQPGGSLRLSCAVSGFSLTIYGAHWVRQAPGKGLEWVSVIWAGGSTNYNSALMSRFTISKDNSKNTVYLQMNSLRAEDTAVYYCARDGSSPYYYSMEYWGQGTTVTVSS VL: EIVLTQSPATLSLSPGERATLSCSATSSVSYMHWFQQKPGQAPRLLIYSTSNLASGIPARFSGSGSGTDYTLTISSLEPEDFAVYYCQQRSSYPFTFGPGTKLDIK",50 pM
6,"HCKFmut (antibody, human IgG1, V domains shown, human IgG1/kappa) VH: EVQLVESGGGLVQPGGSLRLSCAVSGFSLTIYGAHWVRQAPGKGLEWVSVIWAGGSTNYNSALMSRFTISKDNSKNTVYLQMNSLRAEDTAVYYCARDGSSPYYYSMEYWGQGTTVTVSS VL: EIVLTQSPATLSLSPGERATLSCSATSSVSYMHWFQQKPGQAPRLLIYSTSNLASGIPARFSGSGSGTDYTLTISSLEPEDFAVYYCQQRSSYPYTFGPGTKLDIK",78 pM
7,"HCKG (antibody, human IgG1, V domains shown, human IgG1/kappa) VH: EVQLVESGGGLVQPGGSLRLSCAVSGFSLTIYGAHWVRQAPGKGLEWVSVIWAGGSTNYNSALMSRFTISKDNSKNTVYLQMNSLRAEDTAVYYCARDGSSPYYYSMEYWGQGTTVTVSS VL: EIVLTQSPATLSLSPGERATLSCSATSSVSYMHWYQQKPGQAPRLLIYSTSNLASGIPARFSGSGSGTDFTLTISSLEPEDFAVYYCQQRSSYPFTFGPGTKLDIK",273 pM
8,"HDKA (antibody, human IgG1, V domains shown, human IgG1/kappa) VH: EVQLVESGGGLVQPGGSLRLSCAASGFSLTIYGAHWVRQAPGKGLEWLSVIWAGGSTNYNSALMSRFTISKDNSKNTVYLQMNSLRAEDTAVYYCARDGSSPYYYSMEYWGQGTTVTVSS VL: EIVLTQSPATLSLSPGERATLSCSATSSVSYMHWFQQKPGQAPRLLIYSTSNLASGIPARFSGSGSGTDFTLTISSLEPEDFAVYYCQQRSSYPFTFGPGTKLDIK",67 pM
9,"HDKB (antibody, human IgG1, V domains shown, human IgG1/kappa) VH: EVQLVESGGGLVQPGGSLRLSCAASGFSLTIYGAHWVRQAPGKGLEWLSVIWAGGSTNYNSALMSRFTISKDNSKNTVYLQMNSLRAEDTAVYYCARDGSSPYYYSMEYWGQGTTVTVSS VL: EIILTQSPATLSLSPGERATLSCSATSSVSYMHWFQQKPGQAPRLWIYSTSNLASGVPARFSGSGSGTDYTLTISSLEPEDFAVYYCQQRSSYPFTFGPGTKLDIK",55 pM
10,"HDKC (antibody, human IgG1, V domains shown, human IgG1/kappa) VH: EVQLVESGGGLVQPGGSLRLSCAASGFSLTIYGAHWVRQAPGKGLEWLSVIWAGGSTNYNSALMSRFTISKDNSKNTVYLQMNSLRAEDTAVYYCARDGSSPYYYSMEYWGQGTTVTVSS VL: EIILTQSPATLSLSPGERATLSCSATSSVSYMHWFQQKPGQAPRLLIYSTSNLASGIPARFSGSGSGTDFTLTISSLEPEDFAVYYCQQRSSYPFTFGPGTKLDIK",57 pM
11,"HDKD (antibody, human IgG1, V domains shown, human IgG1/kappa) VH: EVQLVESGGGLVQPGGSLRLSCAASGFSLTIYGAHWVRQAPGKGLEWLSVIWAGGSTNYNSALMSRFTISKDNSKNTVYLQMNSLRAEDTAVYYCARDGSSPYYYSMEYWGQGTTVTVSS VL: EIVLTQSPATLSLSPGERATLSCSATSSVSYMHWFQQKPGQAPRLWIYSTSNLASGIPARFSGSGSGTDFTLTISSLEPEDFAVYYCQQRSSYPFTFGPGTKLDIK",48 pM
12,"HDKE (antibody, human IgG1, V domains shown, human IgG1/kappa) VH: EVQLVESGGGLVQPGGSLRLSCAASGFSLTIYGAHWVRQAPGKGLEWLSVIWAGGSTNYNSALMSRFTISKDNSKNTVYLQMNSLRAEDTAVYYCARDGSSPYYYSMEYWGQGTTVTVSS VL: EIVLTQSPATLSLSPGERATLSCSATSSVSYMHWFQQKPGQAPRLLIYSTSNLASGVPARFSGSGSGTDFTLTISSLEPEDFAVYYCQQRSSYPFTFGPGTKLDIK",65 pM
13,"HDKF (antibody, human IgG1, V domains shown, human IgG1/kappa) VH: EVQLVESGGGLVQPGGSLRLSCAASGFSLTIYGAHWVRQAPGKGLEWLSVIWAGGSTNYNSALMSRFTISKDNSKNTVYLQMNSLRAEDTAVYYCARDGSSPYYYSMEYWGQGTTVTVSS VL: EIVLTQSPATLSLSPGERATLSCSATSSVSYMHWFQQKPGQAPRLLIYSTSNLASGIPARFSGSGSGTDYTLTISSLEPEDFAVYYCQQRSSYPFTFGPGTKLDIK",57 pM
14,"HDKFmut (antibody, human IgG1, V domains shown, human IgG1/kappa) VH: EVQLVESGGGLVQPGGSLRLSCAASGFSLTIYGAHWVRQAPGKGLEWLSVIWAGGSTNYNSALMSRFTISKDNSKNTVYLQMNSLRAEDTAVYYCARDGSSPYYYSMEYWGQGTTVTVSS VL: EIVLTQSPATLSLSPGERATLSCSATSSVSYMHWFQQKPGQAPRLLIYSTSNLASGIPARFSGSGSGTDYTLTISSLEPEDFAVYYCQQRSSYPYTFGPGTKLDIK",56 pM
15,"HDKG (antibody, human IgG1, V domains shown, human IgG1/kappa) VH: EVQLVESGGGLVQPGGSLRLSCAASGFSLTIYGAHWVRQAPGKGLEWLSVIWAGGSTNYNSALMSRFTISKDNSKNTVYLQMNSLRAEDTAVYYCARDGSSPYYYSMEYWGQGTTVTVSS VL: EIVLTQSPATLSLSPGERATLSCSATSSVSYMHWYQQKPGQAPRLLIYSTSNLASGIPARFSGSGSGTDFTLTISSLEPEDFAVYYCQQRSSYPFTFGPGTKLDIK",113 pM
16,"HEKB (antibody, human IgG1, V domains shown, human IgG1/kappa) VH: EVQLVESGGGLVQPGGSLRLSCAASGFSLTIYGAHWVRQAPGKGLEWVGVIWAGGSTNYNSALMSRFTISKDNSKNTVYLQMNSLRAEDTAVYYCARDGSSPYYYSMEYWGQGTTVTVSS VL: EIILTQSPATLSLSPGERATLSCSATSSVSYMHWFQQKPGQAPRLWIYSTSNLASGVPARFSGSGSGTDYTLTISSLEPEDFAVYYCQQRSSYPFTFGPGTKLDIK",63 pM and 57 pM
17,"HEKC (antibody, human IgG1, V domains shown, human IgG1/kappa) VH: EVQLVESGGGLVQPGGSLRLSCAASGFSLTIYGAHWVRQAPGKGLEWVGVIWAGGSTNYNSALMSRFTISKDNSKNTVYLQMNSLRAEDTAVYYCARDGSSPYYYSMEYWGQGTTVTVSS VL: EIILTQSPATLSLSPGERATLSCSATSSVSYMHWFQQKPGQAPRLLIYSTSNLASGIPARFSGSGSGTDFTLTISSLEPEDFAVYYCQQRSSYPFTFGPGTKLDIK",69 pM and 65 pM
18,"HEKD (antibody, human IgG1, V domains shown, human IgG1/kappa) VH: EVQLVESGGGLVQPGGSLRLSCAASGFSLTIYGAHWVRQAPGKGLEWVGVIWAGGSTNYNSALMSRFTISKDNSKNTVYLQMNSLRAEDTAVYYCARDGSSPYYYSMEYWGQGTTVTVSS VL: EIVLTQSPATLSLSPGERATLSCSATSSVSYMHWFQQKPGQAPRLWIYSTSNLASGIPARFSGSGSGTDFTLTISSLEPEDFAVYYCQQRSSYPFTFGPGTKLDIK",59 pM and 70 pM
19,"HEKG (antibody, human IgG1, V domains shown, human IgG1/kappa) VH: EVQLVESGGGLVQPGGSLRLSCAASGFSLTIYGAHWVRQAPGKGLEWVGVIWAGGSTNYNSALMSRFTISKDNSKNTVYLQMNSLRAEDTAVYYCARDGSSPYYYSMEYWGQGTTVTVSS VL: EIVLTQSPATLSLSPGERATLSCSATSSVSYMHWYQQKPGQAPRLLIYSTSNLASGIPARFSGSGSGTDFTLTISSLEPEDFAVYYCQQRSSYPFTFGPGTKLDIK",302 pM
20,"HFKA (antibody, human IgG1, V domains shown, human IgG1/kappa) VH: EVQLVESGGGLVQPGGSLRLSCAASGFSLTIYGAHWVRQAPGKGLEWVSVIWAGGSTNYNSALMSRLTISKDNSKNTVYLQMNSLRAEDTAVYYCARDGSSPYYYSMEYWGQGTTVTVSS VL: EIVLTQSPATLSLSPGERATLSCSATSSVSYMHWFQQKPGQAPRLLIYSTSNLASGIPARFSGSGSGTDFTLTISSLEPEDFAVYYCQQRSSYPFTFGPGTKLDIK",106 pM
